In US20210309747A1 (I MAB BIOPHARMA US, published 2021):
Read-outs that look alike come from different tables or passages of the source.

Key:
[1] = biological target: T1, recombinant human PD-L1 (Sino Biological, Cat#: 10084-H08H) (human, UniProt Q9NZQ7 19-238); assay: ELISA, plate coated with human PD-L1 at 1 ug/ml, detection with goat anti-human IgG-HRP, OD450
T1 construct: Bought protein; also called human PD-L1 protein
Description: To evaluate antigen binding activity, the antibodies were subjected to ELISA test. Briefly, microtiter plates were coated with human PD-L1 protein at 1 μg/ml in PBS, 100 μl/well at 4° C. overnight, then blocked with 100 μl/well of 1% BSA. 4-fold dilutions of humanized antibodies starting from 10 μg/ml were added to each well and incubated for 1-2 hours at RT. The plates were washed with PBS/Tween and then incubate with goat-anti-human IgG antibody conjugated with Horse Radish Peroxidase (HRP) for 1 hour at RT. After washing, the plates were developed with TMB substrate and analyzed by spectrophotometer at OD 450 nm.

[2] = biological target: T2, human PD-L1 on Raji cells (human, UniProt Q9NZQ7 19-290); assay: cell-based or functional assay
[3] = biological target: T2, human PD-L1 on Raji cells; assay: cell-based or functional assay; remark: listed apart in the source

T2 sequence (Q9NZQ7 19-290): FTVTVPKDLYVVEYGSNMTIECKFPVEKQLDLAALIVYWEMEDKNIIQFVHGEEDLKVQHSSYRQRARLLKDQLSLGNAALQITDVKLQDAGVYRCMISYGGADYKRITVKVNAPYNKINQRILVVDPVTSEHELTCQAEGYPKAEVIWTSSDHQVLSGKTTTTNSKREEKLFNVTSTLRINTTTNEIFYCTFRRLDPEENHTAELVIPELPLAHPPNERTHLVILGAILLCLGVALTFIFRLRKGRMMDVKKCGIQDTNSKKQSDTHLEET
T1 sequence (Q9NZQ7 19-238 limits assumed): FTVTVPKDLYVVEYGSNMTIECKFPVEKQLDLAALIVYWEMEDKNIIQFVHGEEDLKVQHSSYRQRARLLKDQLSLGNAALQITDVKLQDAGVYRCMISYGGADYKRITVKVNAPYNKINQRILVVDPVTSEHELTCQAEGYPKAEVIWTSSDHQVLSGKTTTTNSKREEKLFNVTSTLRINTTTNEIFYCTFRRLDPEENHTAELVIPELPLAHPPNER

Binder | EC50 [1] | EC50 (NF-AT-luciferase RLU) [2] | EC50 (NF-AT-luciferase RLU) [3]
B17 (antibody, V domains shown, Fab phage clone converted into full-length IgG; also called 67C2-23) VH: EVQLLESGGGLVQPGGSLRLSCAASGFTFSSNAMSWVRQAPGKGLEWVSAVGGGGVNTYYADSVKGRFTISRDNSKNTLYLQMNSLRAEDTAVYYCAKGEKGYSNSCIDYWGQGTLVTVSA VL: not shown | 36.1 nM |  | 
B11 (antibody, V domains shown, Fab phage clone converted into full-length IgG; also called 67C3-17) VH: EVQLLESGAEVKKPGSSVKVSCKASGGTFSSYAISWVRQAPGQGLEWMGGIIPIFGTANYAQKFQGRVTITADESTSTAYMELSSLRSEDTAVYYCARRTDSYGYSDAFDIWGQGTMVTVSA VL: not shown | 0.294 nM |  | 
B07 (antibody, V domains shown, Fab phage clone converted into full-length IgG; also called 67C1-5) VH: EVQLLESGGGLVQPGGSLRLSCAASGFTFSSYWMSWVRQAPGKGLEWVANIKQDGSEKYYVDSVKGRFTISRDNAKNSLYLQMNSLRAEDTAVYYCARVCGYDDAFDIWGQGTMVTVSA VL: NIQMTHSPSTLSASVGDRVTISCRASQSISTWLAWYQQKPGKAPKLLIYKASSLESGVPSRFSGSGSGTDFTLTISSLQPEDFATYYCQQSYSIPLTFGGGTKVEIK | 0.124 nM | 1.02 nM | 
B05 (antibody, V domains shown, Fab phage clone converted into full-length IgG; also called 67A3-21) VH: EVQLVETGRGLVQPGRSLRLSCAASGFTFSSYWMSWVRQAPGKGLEWVANIKQDGSEKYYVDSVKGRFTISRDNAKNSLYLQMNSLRAEDTAVYYCARGGYYGDDDAFDIWGQGTMVTVSA VL: NIQMTQSPSTLSASVGDRVTITCRASQSISSWLAWYQQKPGKAPKLLIYKASSLESGVPSRFSGSGSGTEFTLTISSLQPEDFATYYCQQTYSLPLTFGQGTRVGIK | 0.625 nM |  | 
B12 (antibody, V domains shown, Fab phage clone converted into full-length IgG; also called 67C1-9) VH: QVQLLESGGGLVQPGGSLRLSCAASGFTFSSYWMSWVRQAPGKGLEWVANIKQDGSEKYYVDSVKGRFTISRDNAKNSLYLQMNSLRAEDTAVYYCARVALWDDAFDIWGQGTMVTVSA VL: NIQLTQSPSTLSASVGDRVIITCRASRGISSWLAWYQQKPGKAPNLLISKASSLESGVPSRFSGSGSGTDFTLTISSLQPEDFATYYCQQSSSIPLTFGGGTKVEIK | 0.142 nM | 0.439 nM | 0.545 nM
B12-02 (antibody, V domains shown) VH: QVQLLESGGGLVQPGGSLRLSCAASGFTFSSYWMSWVRQAPGKGLEWVANIKQEGSEKYYVDSVKGRFTISRDNAKNSLYLQMNSLRAEDTAVYYCARVALWDDAFDIWGQGTMVTVSS VL: DIQMTQSPSTLSASVGDRVIITCRASRGISSWLAWYQQKPGKAPNLLISKASSLESGVPSRFSGSGSGTDFTLTISSLQPEDFATYYCQQSSSIPLTFGGGTKVEIK |  |  | 0.497 nM
B03 (antibody, V domains shown, Fab phage clone converted into full-length IgG; also called 67A3-14) VH: EVQLLESGGGLVQPGGSLRLSCAASGFSFSSYWMSWVRQAPGKGLEWVANIKEDGSEKYYVDSVKGRFTISRDNAKNSLYLQMNSLRAEDTAVYYCARVVRFNDAFDIWGQGTMVTVSA VL: DIQLTQSPSTLSASVGDRVTITCRASQSIDTWLAWYQQKPGKAPKLLIHNASTLKSGVSSRFSGSGSGTDFTLTISSLQPEDFATYYCQQSYSTPLTFGGGTKVEIK | 1.28 nM |  | 
B16 (antibody, V domains shown, Fab phage clone converted into full-length IgG; also called 67C3-10) VH: QVQLLDSGGGLVQPGGSLRLSCAASGFTFSSYWMSWVRQAPGKGLEWVANIKQDGSEKYYVDSVKGRFTISRDNAKNSLYLQMNSLRAEDTAVYYCARVALWDDAFDIWGQGTMVTVSA VL: DIQMTQSPSSLSASVGDRVTITCRASQSISSWLAWYQQKPGKAPKLLIYKASSLESGVPSRFSGSGSGTEFTLTISSLQPDDFATYYCQHSNSLPLTFGGGTKVEIK | 0.147 nM | 1.05 nM | 
B10 (antibody, V domains shown, Fab phage clone converted into full-length IgG; also called 67C3-14) VH: QVQLVQSGGGLVQPGGSLRLSCAASGFTFSSYWMSWVRQAPGKGLEWVANIKQDGSEKYYVDSVKGRFTISRDNAKNSLFLQMNSLGAEDTAMYYCARATVKYGGDDAFDIWGQGTMVTVSA VL: NIQLTQSPSTLSASVGDRVTITCRASQSISDWLAWYQQKPGKAPNLLIYKASSLESGVPSRFSGSGSGTDFTLTISSLQPEDFATYYCQQSFSTPFTFGPGTKVDIK | 0.31 nM | 2.22 nM | 
B12-03 (antibody, V domains shown) VH: QVQLLESGGGLVQPGGSLRLSCAASGFTFSSYWMSWVRQAPGKGLEWVANIKQEGSEKYYVDAVKGRFTISRDNAKNSLYLQMNSLRAEDTAVYYCARVALWDDAFDIWGQGTMVTVSS VL: DIQMTQSPSTLSASVGDRVIITCRASRGISSWLAWYQQKPGKAPNLLISKASSLESGVPSRFSGSGSGTDFTLTISSLQPEDFATYYCQQSSSIPLTFGGGTKVEIK |  |  | 0.517 nM
B16-01 (antibody, V domains shown) VH: QVQLLDSGGGLVQPGGSLRLSCAASGFTFSSYWMSWVRQAPGKGLEWVANIKQDGSEKYYVDSVKGRFTISRDNAKNSLYLQMNSLRAEDTAVYYCARVALWDDAFDIWGQGTMVTVSS VL: DIQMTQSPSSLSASVGDRVTITCRASQSISSWLAWYQQKPGKAPKLLIYKASSLESGVPSRFSGSGSGTEFTLTISSLQPDDFATYYCQHSNSLPLTFGGGTKVEIK |  |  | 0.611 nM
B13 (antibody, V domains shown, Fab phage clone converted into full-length IgG; also called 67C1-10) VH: EVQLLESGGGLVQPGGSLRLSCAASGFTFSSYWMSWVRQAPGKGLEWVANIKQDGSEKYYVDSVKGRFTISRDNAKNSLYLQMNSLRAEDTAVYFCARSTVKYGADDAFDIWGQGAMVTVSA VL: NIQMTQSPSTLSASVGDRVTITCRASQSISSWLAWYQQKPGKAPKLLIYKASSLQSGVPSRFSGSGSGTDFTLTISSLQPEDFATYYCQQSYSTPFTFGPGTKVDIK | 0.13 nM |  | 
B09 (antibody, V domains shown, Fab phage clone converted into full-length IgG; also called 67C2-9) VH: EVQLLESGGGLVQPGGSLRLSCAASGFTFSSYWMSWVRQAPGKGLEWVANIKQDGSEKYYVDSVKGRFTISRDNAKNSLYLQMNSLRAEDTAVYYCAREDFWSGYQDVWGQGTMVTVSA VL: not shown | 14.3 nM |  | 
B04 (antibody, V domains shown, Fab phage clone converted into full-length IgG; also called 67A3-15) VH: QVQLLDSGGGLVQPGGSLRLSCAASGFTFSSYWMSWVRQAPGKGLEWVANIKQDGSEKYYVDSVKGRFTISRDNAKNSLYLQMNSLRAEDTAVYYCARTMLWDDAFDIWGQGTMVTVSA VL: DIQLTQSPSTLSASVGDRVTITCRASESISSWLAWYQQKPGKVPKLLIYKASSLESGVPSRFSGSGSGTDFTLTISSLQPEDFATYYCQQSYSTPPTFGQGTKVEIK | 0.19 nM | 2.34 nM | 
B14 (antibody, V domains shown, Fab phage clone converted into full-length IgG; also called 67C2-19) VH: EVQLLESGGGEVQPGRSLRLSCAASGFSFSSYWMSWVRQAPGKGLEWVANIKEDGSEKYYVDSVKGRFTISRDNAKNSLYLQMNSLRAEDTAVYYCARVVRFNDAFDIWGQGTMVTVSA VL: NIQLTQSPSSVSASVGDRVTITCRASQGISSWLAWYQQKPGKAPKLLIYAASSLQSGVPSRFSGSGSGTDFTLTISSLQPEDFATYYCQQANSFPFTFGPGTKVDIK | 0.222 nM |  | 
B01 (antibody, V domains shown, Fab phage clone converted into full-length IgG; also called 67A3-5) VH: EVQLLESGGGLVQPGGSLRLSCAASGFTLSSHWLAWVRQAPGKGLEWVASIHQDASLEFYVDSVEGRFTISRDNSKRSLFLQMNNLRVEDTAVYYCARGDNQFDNWGQGTLVTVSA VL: not shown | 18 nM |  | 
B02 (antibody, V domains shown, Fab phage clone converted into full-length IgG; also called 67A2-20) VH: QVQLLESGGGLVKPGGSLRLSCAASGFTFSTYIINWVRQAPGKGLEWVSSVAASGDYAYYANSVKGRFTISRDNSKNTLYLQMNSLRAEDTAVYYCARDRSSGYYLSPNDAFDIWGQGTMVTVSA VL: NIQLTQSPSSLSASLGDRVTITCRASQTISRYLNWYQQKPGKAPELLIYATSSLQSGVPSRFSGSGSGTDFTLTISSLQPEDFATYYCQQSYSTPTTFGGGTKVEIK | 15.5 nM |  | 
B06-01 (antibody, V domains shown) VH: not shown VL: DIQMTQSPSSLSASVGDRVTITCRASQGISSYLAWYQQKPGKAPKLLIYAASTLQSGVPDRFSGSGSGTDFTLTISSLQAEDVAVYYCQQYLSVPYTFGQGTKVEIK |  |  | 0.383 nM
B06 (antibody, V domains shown, Fab phage clone converted into full-length IgG; also called 67A3-40) VH: not shown VL: DIQMTQSPSSLSASVGDRVTITCRASQGISSYLAWYQQKPGKAPKLLIYAASTLQSGVPDRFSGSGSGTDFTLTISSLQAEDVAVYYCQQYLSVPYTFGQGTKVEIK | 0.236 nM | 0.516 nM | 
B06-02 (antibody, V domains shown) VH: not shown VL: DIQMTQSPSSLSASVGDRVTITCRASQGISSYLAWYQQKPGKAPKLLIYAASTLQSGVPDRFSGSGSGTDFTLTISSLQAEDVAVYYCQQYLSVPYTFGQGTKVEIK |  |  | 0.97 nM
B06-03 (antibody, V domains shown) VH: not shown VL: DIQMTQSPSSLSASVGDRVTITCRASQGISSYLAWYQQKPGKAPKLLIYAASTLQSGVPDRFSGSGSGTDFTLTISSLQAEDVAVYYCQQYLSVPYTFGQGTKVEIK |  |  | 0.907 nM
B08 (antibody, V domains shown, Fab phage clone converted into full-length IgG; also called 67C2-1) VH: EVQLLESGGGLVQPGGSLRLSCVGSGFTFSDHYMDWVRQAPGKGLEWVSSISSSSSYIYYADSVKGRFTISRDNAKNSLYLQMNSLRAEDTAVYYCARGRVGATNRFGMDVWGQGTMVTVSA VL: DIQMIQSPSSVSASVGDRVTITCRASESISRWLAWYQQKPGKAPKLLIYAASNLESGVPSRFSGSGSGTEFTLTISSLQPEDFATYYCQQAESFPSFGQGTRLEIK | 1.63 nM |  | 
